Literature values as cited in patent US20120064039A1, “Use of Guanylyl Cyclase C Agonists to Suppress Appetite” (priority 2009, published 2012).

Molecular target: ST receptors (guanylate cyclase) (Homo sapiens, UniProt P25092)
Conditions: relative to native ST; about

Sequence of ST receptors (guanylate cyclase) (P25092 24-1073): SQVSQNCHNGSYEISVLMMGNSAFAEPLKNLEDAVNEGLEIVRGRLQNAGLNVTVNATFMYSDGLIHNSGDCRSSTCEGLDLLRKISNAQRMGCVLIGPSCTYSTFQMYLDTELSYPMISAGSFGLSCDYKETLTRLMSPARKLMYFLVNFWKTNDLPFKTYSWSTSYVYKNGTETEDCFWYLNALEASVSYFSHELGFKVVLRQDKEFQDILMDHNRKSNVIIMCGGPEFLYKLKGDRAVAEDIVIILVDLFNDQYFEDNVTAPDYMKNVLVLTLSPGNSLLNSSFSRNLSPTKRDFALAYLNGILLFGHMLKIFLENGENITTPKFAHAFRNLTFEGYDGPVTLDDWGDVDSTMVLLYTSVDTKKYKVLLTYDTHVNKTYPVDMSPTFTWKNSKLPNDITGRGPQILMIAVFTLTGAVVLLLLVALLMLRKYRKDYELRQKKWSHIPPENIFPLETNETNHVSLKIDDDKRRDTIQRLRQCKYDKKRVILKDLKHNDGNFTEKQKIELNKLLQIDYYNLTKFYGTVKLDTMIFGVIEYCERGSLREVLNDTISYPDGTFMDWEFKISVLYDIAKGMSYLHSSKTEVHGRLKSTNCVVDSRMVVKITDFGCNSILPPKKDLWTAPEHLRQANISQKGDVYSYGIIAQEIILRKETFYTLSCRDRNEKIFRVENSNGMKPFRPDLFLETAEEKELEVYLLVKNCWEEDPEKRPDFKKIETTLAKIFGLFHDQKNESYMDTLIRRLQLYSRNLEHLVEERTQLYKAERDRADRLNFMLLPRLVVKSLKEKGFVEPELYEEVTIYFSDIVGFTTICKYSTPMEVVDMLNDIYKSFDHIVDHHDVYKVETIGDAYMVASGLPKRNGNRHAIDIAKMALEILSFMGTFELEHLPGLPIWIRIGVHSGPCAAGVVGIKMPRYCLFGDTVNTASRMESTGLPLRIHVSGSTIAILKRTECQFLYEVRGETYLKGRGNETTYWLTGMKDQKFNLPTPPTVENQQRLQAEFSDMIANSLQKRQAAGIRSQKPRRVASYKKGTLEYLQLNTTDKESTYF

Substance: guanylin (PNTCEICAYAACTGC; listed as Rattus norvegicus) [native GCC ligand]
- activates guanylate cyclase at a level less than native ST: 10- to 100 fold
